Assay results as given in PMC10011724.

Target: Flag-tagged BPGAP1
Test: co-immunoprecipitation (anti-Flag M2 beads) with immunoblot quantification
Conditions: HEK293T cell lysates; three independent experiments; parent: est. 1.0; read off a plot

Substance	ratio to parent [fold change]
HA-tagged Rac1, wild-type (WT) (from UniProt P63000) T17N	2.2
HA-tagged Rac1, wild-type (WT) (from UniProt P63000) G12V	0.72
